Experiments:
[1] = molecular target: the molecule itself; assay: SAXS; scattering curve of 5KA DprA in solution superimposed on that of WT DprA (the latter taken from ref. 18)
[2] = molecular target: T1, S. pneumoniae RecA lacking the first 28 residues (Δ28), purified (S. pneumoniae, UniProt P0A451 29-388); assay: pull-down; pull-down on magnetic beads using purified proteins; which partner was on the beads is told only in the supplementary methods; conditions: both partners purified
T1 construct: RecA, Streptococcus pneumoniae, locus Sp1940, the 28 first residues removed; also called Δ28RecA; source: E. coli, purified (Ni-NTA column, gel filtration)

B1: S. pneumoniae DprA K119A/K144A/K175A/K202A/K225A (5KA), purified (natural protein)
chain: MKITNYEIYKLKKSGLTNQQILKVLEYGENVDQELLLGDIADISGCRNPAVFMERYFQIDDAHLSKEFQKFPSFSILDDCYPWDLSEIYDAPVLLFYKGNLDLLKFPKVAVVGSRACSAQGAKSVEKVIQGLENELVIVSGLAAGIDTAAHMAALQNGGKTIAVIGTGLDVFYPAANKRLQDYIGNDHLVLSEYGPGEQPLAFHFPARNRIIAGLCRGVIVAEAAMRSGSLITCERAMEEGRDVFAIPGSILDGLSDGCHHLIQEGAKLVTSGQDVLAEFEF
notes: DprA, Streptococcus pneumoniae, locus Sp1266, five lysines K119/K144/K175/K202/K225 mutated to alanines; also called 5KADprA; 5KA mutant; source: E. coli, purified (Ni-NTA column, gel filtration)
B1 was tested, and the “stoichiometry N” value [1] was 2 and the binding result [2] was “binds”.

Source: publication PMC4066776, “Molecular determinants of the DprA−RecA interaction for nucleation on ssDNA” (Nucleic Acids Research, 2014)
